{"source": "patent US20110311601A1", "about": "“ANTIMICROBIAL MEDICAL DEVICES” (priority 2010, published 2011)", "molecules": {"B1": {"name": "Ribonuclease 7 (protein)", "chain": "KPKGMTSSQWFKIQHMQPSPQACNSAMKNINKHTKRCKDLNTFLHEPFSSVAATCQTPKIACKNGDKNCHQSHGPVSLTMCKLTSGKYPNCRYKEKRQNKSYVVACKPPQKKDSQQFHLVPVHLDRVL", "modifications": "Homo sapien"}, "B2": {"name": "mutRNAse7: Ribonuclease 7 derivative, SEQ ID NO: 10 (protein)", "chain": "B1 chain with K38R, H123D", "modifications": "Synthetic primer"}, "B3": {"name": "human β-defensin-2 (peptide)", "peptide": "GIGDPVTCLKSGAICHPVFCPRRYKQIGTCGLPGTKCCKKP", "modifications": "ends and bridges not checked; cysteine pairing not given here"}}, "key": {"[1]": {"test_system": "Escherichia coli strain DB3.1", "assay": "microdilution assay of hβD2 coated biopolymers (percentage killing)", "type": "cell-based", "details": "blocking substance alone, without hβD2", "description": "Microdilution assay. In the microdilution assay the microorganisms were exposed to a potential bio-active substance in liquid surrounding, thus free to move. This potential bio-active substance was either homogenously dispersed in the liquid surrounding by active mixing at the beginning of the tests or could spread out of the sample during incubation time. The bioactivity was measured in percentage killing, wherein the number of colony forming units (CFU) in a control without test substance was set to 0% killing and a reduction in the cell number to zero was set to 100% killing.\nFresh cells were harvested by centrifugation at 1600 rpm for 10 min, the supernatant was removed and the cell pellet was resuspended in 5 ml 10 mM sodium phosphate buffer. This procedure was repeated twice. The optical density was adjusted to OD600 of 0.500 with 10 mM sodium phosphate buffer. 100 μl of the bacterial suspension was pipetted in one well of a microtiter plate without optimized surface. 10 μl test substance or test sample was added. In case of a test substance, the mixture was homogenized by absorbing the mixture several times with a pipette. The microtiter plate is then closed with parafilm and incubated at 37° C. for 2 h. After incubation the substances in the wells were mixed by a pipette. […] For evaluation, the grown colonies were counted.\nThe microdilution assay facilitates the examination of the hβD2 release kinetics of the biopolymers and thus allowed conclusions on what amounts of hβD2 in which time could be released. For comparing on evaluation of the assay the effect of directly applied hβD2 amounts with the effect of hβD2 amounts applied on biopolymers, the achieved percentage killing of bacteria was compared to the killing rate of the hβD2 standard series in the microdilution assays.\nThe collagen scaffolds and polylactide matrices were examined in the microdilution assay regarding their hβD2 release kinetics. Since the incubation time of the samples in the bacterial suspension is limited, the samples were stored at −25° C. after the test and until completion of a further assay. The thawed samples were then used in a new assay and were incubated again."}, "gram-positive bacteria": {"test_system": "gram-positive bacteria", "details": "covalently attached onto titanium surfaces, in vitro; cited from earlier work"}, "[2]": {"test_system": "Escherichia coli strain DB3.1", "assay": "micro-dilution assay of coated titanium pins and peptide controls (bacterial killing, CFU)", "type": "cell-based", "details": "for antibacterial activity, killing: 10 μg coated on SAM 1, SAM 2, SAM 3 titanium pins, 2 h", "description": "In a first experiment 10 μg of hβD2 was coated to three different SAM Hexadecyltrimethoxysilane (SAM 1), Dimethoxymethyloctylsilane (SAM 2), and oxidized Allyltrimethoxysilane (SAM 3) of the modified titanium pins. The anti-bacterial activity of the hβD2-coated pins was tested by a micro-dilution assay. Therefore, Escherichia coli strain DB3.1 (Invitrogen, Cat. No. 11782-018) was used. E. coli was streaked from a glycerol stock onto a Brain Heart Infusion (BHI) agar plate (3.7% (w/v) BHI Bouillon, 1.5% (w/v) Agar), grown overnight at 37° C. and subsequently used to inoculate 40 ml of 3.7% (w/v) BHI Bouillon without any antibiotics in 100 ml flasks. Fresh cells were harvested by centrifugation at 16000 rpm for 10 min and washed twice with 10 mM sodium phosphate buffer, pH 7.2. The optical density was adjusted to 10^4 cells/ml. For anti-bacterial testing, a single pin coated with hβD2 was incubated in one well of a microtiter plate containing 100 μl of the bacterial suspension.\nFunctionalized titanium pins without hβD2 served as negative controls (SAM1-n, SAM2-n, SAM3-n, SAM4::Col-NHS-n, SAM4::Col-Glu-n). In addition, 5 independent control reactions consisting of hβD2 in a final amount of 0 (NC), 0.02 (PC1), 0.2 (PC2), 2 (PC3) and 10 (PC4) μg were examined in parallel. To determine the specificity of the anti-bacterial activity of hβD2, 10 μl (10 μg/ml in PBS) of polyclonal monospecific anti-hβD2 antibodies were co-incubated with 10 μg of hβD2 and bacterial cells (Table I, PC4/ab).\nThe microtiter plates were incubated for 2 h at 37° C. The kinetic studies were performed by replacing the bacterial suspension, after 2 h of cultivation with a freshly pre-cultured E. coli solution, which contained the same bacterial concentration, and cultivating for another 2 h and so on. Colony forming units (CFU) were determined after plating 100 μl of a 1:100 dilution of the bacterial suspension on petri dishes with BHI medium and incubating them overnight at 37° C. For every group of the functionalized titanium pins and the controls, 5 independent anti-bacterial assays were performed. A control (NC) of bacterial growth was examined for every independent assay. The number of CFU on the control (consisting of a single petri dish) was set to 0% bactericidal activity. The reduction in the CFU resulting from the anti-bacterial activity of hβD2 was related to the absolute CFU of the control within every independent assay. This value, given as a percentage of the bacterial “killing” activity, was used to describe the antibacterial activity. This kind of normalisation of the antibacterial data was performed for every experimental group.\nTo examine the release behavior of hβD2 that is adsorbed by different SAM modified titanium pins a time kinetic experiment was performed. The experiment was performed analogous to Example 2. For this experiment 80 μg of hβD2 was adsorbed to three different SAMs Hexadecyltrimethoxysilane (SAM1), Dimethoxymethyloctylsilane (SAM2), and oxidized Allyltrimethoxysilane (SAM3) of the modified titanium pins.\nSince it is known that collagen has a positive impact on wound healing, functionalised titanium pins with collagen were investigated. Two different cross-linking strategies for collagen on SAM3 and SAM4 were applied as described in Example 1: (i) a covalently binding strategy with the NHS/EDC cross-linking system, and (ii) the use of glutaraldehyde. Successful binding of collagen was monitored by collagen-specific DirectRed staining (as described in Example 1). […] Additionally 80 μg hβD2 was adsorbed to collagen functionalized SAM3 and SAM4 modified titanium pins, respectively. For monitoring the antibacterial activity of the bio-coated pins the experiment was performed analogous to Example 3. […]"}, "[3]": {"target": "collagen scaffold (bovine collagen type I) (bovine, UniProt P02453 162-1217; P02465 80-1117, limits assumed)", "sequence (P02453 162-1217 limits assumed, chain 1 of 2)": "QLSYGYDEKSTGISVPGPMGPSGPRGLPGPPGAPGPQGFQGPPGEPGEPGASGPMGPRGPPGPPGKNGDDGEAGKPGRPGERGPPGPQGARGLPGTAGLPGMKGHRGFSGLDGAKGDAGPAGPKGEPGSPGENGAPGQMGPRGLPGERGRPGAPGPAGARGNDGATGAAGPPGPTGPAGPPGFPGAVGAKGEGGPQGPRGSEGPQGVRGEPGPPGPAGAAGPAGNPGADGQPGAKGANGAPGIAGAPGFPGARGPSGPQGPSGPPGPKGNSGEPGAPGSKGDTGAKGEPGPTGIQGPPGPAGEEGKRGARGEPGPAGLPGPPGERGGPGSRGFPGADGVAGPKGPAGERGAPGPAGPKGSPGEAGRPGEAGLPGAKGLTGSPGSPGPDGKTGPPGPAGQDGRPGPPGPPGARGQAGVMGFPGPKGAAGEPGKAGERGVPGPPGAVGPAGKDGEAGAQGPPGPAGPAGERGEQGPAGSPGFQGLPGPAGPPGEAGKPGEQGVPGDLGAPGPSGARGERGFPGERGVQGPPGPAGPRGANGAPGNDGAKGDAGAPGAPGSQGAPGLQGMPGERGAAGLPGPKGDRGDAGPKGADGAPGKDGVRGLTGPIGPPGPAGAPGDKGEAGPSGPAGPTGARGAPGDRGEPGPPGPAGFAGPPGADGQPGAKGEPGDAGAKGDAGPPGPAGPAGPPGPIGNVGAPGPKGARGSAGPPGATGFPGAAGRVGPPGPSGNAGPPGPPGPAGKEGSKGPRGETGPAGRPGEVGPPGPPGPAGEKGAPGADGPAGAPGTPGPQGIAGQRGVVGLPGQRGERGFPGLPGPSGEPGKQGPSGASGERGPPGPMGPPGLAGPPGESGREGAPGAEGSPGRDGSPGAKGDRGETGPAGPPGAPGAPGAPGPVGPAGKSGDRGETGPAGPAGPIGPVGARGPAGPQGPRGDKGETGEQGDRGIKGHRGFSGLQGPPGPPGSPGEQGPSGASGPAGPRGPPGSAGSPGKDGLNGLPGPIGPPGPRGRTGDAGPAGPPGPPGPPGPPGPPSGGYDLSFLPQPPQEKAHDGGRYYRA", "sequence (P02465 80-1117 limits assumed, chain 2 of 2)": "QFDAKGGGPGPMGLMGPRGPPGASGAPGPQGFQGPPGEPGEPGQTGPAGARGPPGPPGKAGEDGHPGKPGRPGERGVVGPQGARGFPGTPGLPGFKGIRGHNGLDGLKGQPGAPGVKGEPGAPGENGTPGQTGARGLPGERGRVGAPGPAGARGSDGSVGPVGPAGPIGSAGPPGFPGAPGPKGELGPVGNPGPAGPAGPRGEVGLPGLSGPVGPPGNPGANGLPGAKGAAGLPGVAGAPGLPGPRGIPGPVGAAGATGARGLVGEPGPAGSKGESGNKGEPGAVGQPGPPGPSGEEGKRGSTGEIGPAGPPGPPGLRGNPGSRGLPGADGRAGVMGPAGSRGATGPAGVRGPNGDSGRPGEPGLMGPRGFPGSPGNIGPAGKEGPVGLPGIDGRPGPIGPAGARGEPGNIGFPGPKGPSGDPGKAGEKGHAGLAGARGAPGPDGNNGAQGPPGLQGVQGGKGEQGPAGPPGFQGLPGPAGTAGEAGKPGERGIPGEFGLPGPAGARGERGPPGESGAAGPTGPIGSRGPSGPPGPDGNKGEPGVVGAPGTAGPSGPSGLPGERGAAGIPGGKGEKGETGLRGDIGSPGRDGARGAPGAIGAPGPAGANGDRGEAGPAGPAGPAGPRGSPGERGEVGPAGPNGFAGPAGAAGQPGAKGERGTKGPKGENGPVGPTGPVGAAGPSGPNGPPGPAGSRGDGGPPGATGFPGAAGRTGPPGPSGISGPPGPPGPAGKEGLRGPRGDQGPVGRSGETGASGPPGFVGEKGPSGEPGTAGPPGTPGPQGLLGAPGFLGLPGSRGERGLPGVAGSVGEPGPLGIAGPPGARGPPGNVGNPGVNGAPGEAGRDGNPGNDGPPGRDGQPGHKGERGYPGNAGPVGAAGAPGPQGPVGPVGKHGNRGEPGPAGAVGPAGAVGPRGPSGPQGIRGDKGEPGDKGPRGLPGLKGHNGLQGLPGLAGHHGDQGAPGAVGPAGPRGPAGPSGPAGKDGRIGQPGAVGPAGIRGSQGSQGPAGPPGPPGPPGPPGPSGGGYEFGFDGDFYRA", "assay": "cell-based or functional assay"}, "[4]": {"details": "80 μg adsorbed on SAM3 titanium pins, 6 h"}, "[5]": {"details": "80 μg on collagen SAM4 pins, NHS/EDC-system, 4 h"}, "[6]": {"details": "80 μg on collagen SAM4 pins, NHS/EDC-system, 6 h"}, "[7]": {"details": "80 μg on collagen SAM4 pins, glutaraldehyde, 4 h"}, "[8]": {"details": "80 μg on collagen SAM4 pins, glutaraldehyde, 6 h"}}, "note": "Where a chain is given by its changes, count along the chain named. Where no end group is shown, it is not given here.", "data": [{"molecule": "N[C@@H](CCC(=O)O)C(=O)O", "note": "[L-glutamic acid, reference compound]", "values": [{"measurement": "self-activity (killing / reduction of the number of bacteria)", "setting": "[1]", "result": 4, "unit": "%"}]}, {"molecule": "O=C([O-])CC(O)(CC(=O)[O-])C(=O)[O-].[Na+].[Na+].[Na+]", "note": "[Sodium citrate, sodium citrate, reference compound]", "values": [{"measurement": "self-activity (killing / reduction of the number of bacteria)", "setting": "[1]", "result": 100, "unit": "%"}]}, {"molecule": "CN[C@H](CC(C)C)C(=O)N[C@H]1C(=O)N[C@@H](CC(N)=O)C(=O)N[C@H]2C(=O)N[C@H]3C(=O)N[C@H](C(=O)N[C@H](C(=O)O)c4cc(O)cc(O)c4-c4cc3ccc4O)[C@H](O)c3ccc(c(Cl)c3)Oc3cc2cc(c3O[C@@H]2O[C@H](CO)[C@@H](O)[C@H](O)[C@H]2O[C@H]2C[C@](C)(N)[C@H](O)[C@H](C)O2)Oc2ccc(cc2Cl)[C@H]1O", "note": "[vancomycine]", "values": [{"measurement": "reduced colony-forming of gram-positive bacteria", "setting": "gram-positive bacteria", "result": "up to 88%"}]}, {"molecule": "NCCCC[C@H](N)C(=O)O", "note": "[L-lysine, reference compound]", "values": [{"measurement": "self-activity (killing / reduction of the number of bacteria)", "setting": "[1]", "result": 4, "unit": "%"}]}, {"molecule": "NCCCCNCCCN", "note": "[spermidine, reference compound]", "values": [{"measurement": "self-activity (killing / reduction of the number of bacteria)", "setting": "[1]", "result": 35, "unit": "%"}]}, {"molecule": "poly-L-lysine [reference compound]", "values": [{"measurement": "self-activity (killing / reduction of the number of bacteria)", "setting": "[1]", "result": 100, "unit": "%"}]}, {"molecule": "poly-L-glutamic acid [reference compound]", "values": [{"measurement": "self-activity (killing / reduction of the number of bacteria)", "setting": "[1]", "result": "no self-activity"}]}, {"molecule": "chondroitin sulphate [reference compound]", "values": [{"measurement": "self-activity (killing / reduction of the number of bacteria)", "setting": "[1]", "result": 23, "unit": "%"}]}, {"molecule": "B1", "values": [{"measurement": "antibacterial activity, killing", "setting": "[2]", "result": "about 90%"}, {"measurement": "killing rate", "setting": "[2]; [4]", "result": 21, "unit": "%"}, {"measurement": "killing rate", "setting": "[2]; [5]", "result": 49, "unit": "%"}, {"measurement": "killing rate", "setting": "[2]; [6]", "result": "about 22%"}, {"measurement": "killing rate", "setting": "[2]; [7]", "result": 77, "unit": "%"}, {"measurement": "killing rate", "setting": "[2]; [8]", "result": "about 8%"}]}, {"molecule": "B2", "values": [{"measurement": "antibacterial activity, killing", "setting": "[2]", "result": "about 90%"}, {"measurement": "killing rate", "setting": "[2]; 80 μg adsorbed on SAM1 titanium pins, 6 h", "result": "~41", "unit": "%"}, {"measurement": "killing rate", "setting": "[2]; [4]", "result": 17, "unit": "%"}, {"measurement": "killing rate", "setting": "[2]; [5]", "result": 53, "unit": "%"}, {"measurement": "killing rate", "setting": "[2]; [6]", "result": "~17", "unit": "%"}, {"measurement": "killing rate", "setting": "[2]; [7]", "result": 75, "unit": "%"}, {"measurement": "killing rate", "setting": "[2]; [8]", "result": "~15", "unit": "%"}]}, {"molecule": "B3", "values": [{"measurement": "hβD2 released by the scaffold (agar diffusion assay, zone of inhibition against E. coli, 10 µg hβD2 applied)", "setting": "[3]", "result": 40, "unit": "%"}, {"measurement": "hβD2 retarded by the scaffold (agar diffusion assay, zone of inhibition against E. coli, 10 µg hβD2 applied)", "setting": "[3]", "result": 60, "unit": "%"}]}]}
